How the values were obtained:
[1] = tested on: anti-BPDE-DNA monoclonal antibody 8E11 (Mus musculus); settings: single (+/-)-anti-BPDE-N2-dG adduct in the SEQ:5 segment; CE/LIF; complex formation with native duplex, 20 ug/mL (printed mg/mL) 8E11
[2] = tested on: anti-BPDE-DNA monoclonal antibody 5D11 (Mus musculus); settings: slight cross-reaction at 20 ug/mL 5D11

| Sequence | binding signal (fold lower than denatured) [1] | binding signal (% of total peak area) [2] |
| --- | --- | --- |
| CCTTAAGCTTCCTCAACCACTTACCATACTCGAGATTCCCATTATGCATAACCGTCATATGCCGCCTCTGACCTTCCTAGAATTCCATCC (double strand) [TMR-BPDE-90-mer, native duplex] | 6 | – |
| CCTTAAGCTTCCTCAACCACTTACCATACTCGAGATTCCCATTATGCATAACCGTCATATGCCGCCTCTGACCTTCCTAGAATTCCATCC [TMR control 90-mer (no BPDE), heat-denatured] | – | 2.1 |

From US20020061531
